Assay results: article PMC9704045
Where two headings read alike, the source gives them in different places.

Key:
[1] = target: wild-type HexaPro (D614) SARS-CoV-2 spike trimer (SARS-CoV-2); assay: BLI; Octet Red384; […]; analyte ([…]; HBS-EP+ buffer; 1:1 binding model
[2] = target: wild-type HexaPro (D614) SARS-CoV-2 spike trimer (SARS-CoV-2); assay: as above; remark: listed apart in the source

cilgavimab (AZD1061), full-length IgG (antibody)
Kd [1]: 0.669 nM | Kd [2]: < 1 pM
